Molecular target: GluD1△851 (rat GluD1 receptor truncated C-terminally at residue 851) (rat)
Assay: cryo-EM structure

stoichiometry N: 4
Substance: GluD1△851 (rat GluD1 receptor truncated C-terminally at residue 851)

From article PMC7025878
